B1: mouse anti-CD70-scFv monoclonal antibody 20H05-02D09 (antibody, mouse IgG1, kappa, V domains shown)
VH: QIQLVQSGPELKKPGETVKISCKASGYTFTNYGMHWVKQAPGKVLKWMGWINTYSGVPTYPDDFKGRFAFSLETSASTASLQINNLKNEDTATYFCATERLRGWFPFWGQGTLVTVSA
VL: QIVLTQSPAIMSASPGEKVTISCSASSSVSYMYWYQQKPGSSPKPWIYRTSNLASGVPARFSGSGSGTSYSLTISSMEAEDAATYYCQQYHSYPPTFGGGTKLEIKR
notes: also called 20H05-2D09; native 20H05-2D09
B2: biotin conjugated 20H05 (antibody, mouse IgG1, kappa, V domains shown)
VH: B1 VH
VL: B1 VL
modifications: conjugated with biotin; site and chain not stated
B3: APC conjugated 20H05 (antibody, mouse IgG1, kappa, V domains shown)
VH: B1 VH
VL: B1 VL
modifications: conjugated with APC (allophycocyanin); site and chain not stated
notes: also called direct APC conjugated antibody

Legend:
[1] = biological target: T1, anti-CD70 CAR of SEQ ID NO: 6; assay: flow cytometry, antibody dilution 1:1600, cell population with about 65.4% anti-CD70 CAR+ cells
T1 construct: also called anti-CD70 CAR T cells; anti-CD70 chimeric antigen receptor
T1 sequence (chain, as listed by the source limits assumed): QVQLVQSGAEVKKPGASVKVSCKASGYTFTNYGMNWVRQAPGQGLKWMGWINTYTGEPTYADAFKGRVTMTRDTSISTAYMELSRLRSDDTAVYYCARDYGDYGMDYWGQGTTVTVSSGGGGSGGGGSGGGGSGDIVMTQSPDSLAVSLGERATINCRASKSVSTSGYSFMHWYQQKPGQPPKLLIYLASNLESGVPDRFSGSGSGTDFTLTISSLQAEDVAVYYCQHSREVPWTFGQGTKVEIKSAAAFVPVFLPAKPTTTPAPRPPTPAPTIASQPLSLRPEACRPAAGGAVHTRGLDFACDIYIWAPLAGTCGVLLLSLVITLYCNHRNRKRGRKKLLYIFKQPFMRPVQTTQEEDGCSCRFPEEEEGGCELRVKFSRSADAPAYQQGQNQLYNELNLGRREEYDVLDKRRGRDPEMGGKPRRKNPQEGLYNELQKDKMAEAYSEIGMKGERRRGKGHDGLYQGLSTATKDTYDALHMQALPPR

[2] = biological target: T1, anti-CD70 CAR of SEQ ID NO: 6; assay: flow cytometry, antibody dilution 1:50, cell population with about 65.4% anti-CD70 CAR+ cells
[3] = biological target: T1, anti-CD70 CAR of SEQ ID NO: 6; assay: flow cytometry, antibody dilution 1:100, cell population with about 65.4% anti-CD70 CAR+ cells
[4] = biological target: T1, anti-CD70 CAR of SEQ ID NO: 6; assay: flow cytometry, antibody dilution 1:3200, cell population with about 65.4% anti-CD70 CAR+ cells
[5] = biological target: T1, anti-CD70 CAR of SEQ ID NO: 6; assay: flow cytometry, antibody dilution 1:800, cell population with about 65.4% anti-CD70 CAR+ cells
[6] = biological target: T2, anti-BCMA CAR of SEQ ID NO: 7; assay: flow cytometry on anti-BCMA CAR T cells, antibody at fold dilutions 100 to 12800, % CAR positive cells
T2 construct: also called anti-BCMA CAR T cells
T2 sequence (chain, as listed by the source limits assumed): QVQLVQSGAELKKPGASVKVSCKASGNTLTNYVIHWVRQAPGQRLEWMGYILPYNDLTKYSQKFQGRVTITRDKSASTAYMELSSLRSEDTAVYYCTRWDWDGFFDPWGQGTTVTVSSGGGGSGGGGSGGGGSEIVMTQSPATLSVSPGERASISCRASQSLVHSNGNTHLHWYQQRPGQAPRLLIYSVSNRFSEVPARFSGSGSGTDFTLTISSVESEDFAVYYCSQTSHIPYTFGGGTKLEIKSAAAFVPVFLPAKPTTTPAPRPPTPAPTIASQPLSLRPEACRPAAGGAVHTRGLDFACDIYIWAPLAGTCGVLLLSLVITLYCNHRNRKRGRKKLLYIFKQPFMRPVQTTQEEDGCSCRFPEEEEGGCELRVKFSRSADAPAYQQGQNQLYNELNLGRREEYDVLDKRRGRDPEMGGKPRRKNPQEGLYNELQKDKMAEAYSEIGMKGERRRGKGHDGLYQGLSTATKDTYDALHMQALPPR
Procedure: (§1) The purified 20H05-02D09 antibody was analyzed by flow cytometry for binding to CAR T cells expressing the anti-CD70 CAR of SEQ ID NO: 6 (anti-CD70 CAR T cells). CAR T cells expressing an anti-BCMA CAR of SEQ ID NO: 7 (anti-BCMA CAR T cells) or an anti-CD19 CAR SEQ ID NO: 8 (anti-CD19 CAR T cells) were used as negative controls. Anti-CD70-scFv antibody (20H05-02D09) was analyzed at various dilutions (FIG. 2).

[7] = biological target: T1, anti-CD70 CAR of SEQ ID NO: 6; assay: flow cytometry, antibody dilution 1:6400, cell population with about 65.4% anti-CD70 CAR+ cells
[8] = biological target: T1, anti-CD70 CAR of SEQ ID NO: 6; assay: flow cytometry, antibody dilution 1:400, cell population with about 65.4% anti-CD70 CAR+ cells
[9] = biological target: T1, anti-CD70 CAR of SEQ ID NO: 6; assay: flow cytometry, antibody dilution 1:200, cell population with about 65.4% anti-CD70 CAR+ cells
[10] = biological target: T3, anti-CD19 CAR SEQ ID NO: 8; assay: flow cytometry on anti-CD19 CAR T cells, antibody at fold dilutions 100 to 12800, % CAR positive cells
T3 construct: also called anti-CD19 CAR T cells
Procedure: as §1

| Binder | percentage of anti-CD70 CAR+ cells [1] | percentage of anti-CD70 CAR+ cells [2] | percentage of anti-CD70 CAR+ cells [3] | percentage of anti-CD70 CAR+ cells [4] | percentage of anti-CD70 CAR+ cells [5] | binding result [6] | percentage of anti-CD70 CAR+ cells [7] | percentage of anti-CD70 CAR+ cells [8] | percentage of anti-CD70 CAR+ cells [9] | binding result [10] |
| --- | --- | --- | --- | --- | --- | --- | --- | --- | --- | --- |
| B1 | 65.4% | 67.7% | 67.5% | 67.8% | 66.5% | no binding | 66.5% | 67.2% | 68.3% | no binding |
| B2 | 66.4% | 66.3% | 65.9% | 66.2% | 67% |  | 65.3% | 66.4% | 67.6% |  |
| B3 | 61.4% | 60.8% | 61.3% | 62.7% | 61.5% |  | 62.4% | 61.8% | 61.7% |  |

Reference: US20220041754A1 (CRISPR THERAPEUTICS, published 2022)
